# Experimental data from the supplement of paper PMC11811203.
# B1: THAP1; numbered along this chain (parent)
# chain: MVQSCSAYGCKNRYDKDKPVSFHKFPLTRPSLCKEWEAAVRRKNFKPTKYSSICSEHFTPDCFKRECNNKLLKENAVPTIFLCTEPHDKKEDLLEPQEQLPPPPLPPPVSQVDAAIGLLMPPLQTPVNLSVFCDHNYTVEDTMHQRKRIHQLEQQVEKLRKKLKTAQQRCRRQERQLEKLKEVVHFQKEKDDVSERGYVILPNDYFEIVEVPA
# Variants of: B1
# Assay: THAP1 transcriptional activity (GFP+/GFP- enrichment relative to wild-type constructs) (ratio to WT); higher = more THAP1 activity (PSMB5 reporter activation)
# Conditions: with PSMB5 promoter-GFP reporter
# Protocol: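 Deep mutational scan of human THAP1. Site-saturation single amino acid variant library (residues 2-213) was expressed by lentivirus at MOI ~0.3 in THAP1-knockout HEK-293T cells carrying an endogenous PSMB5 promoter-GFP knock-in reporter. Five days post-transduction, BFP+ cells were FACS-sorted into GFP dim and GFP bright populations and variants were counted by Illumina sequencing. Activity is the GFP-bright/GFP-dim read fold change, mean of 2 replicates, divided by the mean fold change of wild-type (synonymous) constructs in the same screen pool; WT = 1.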
row,Variant,THAP1 transcriptional activity
1,MVQSCSAYGCKNRYDKDKPVSFHKFPLTRPSLCKEWEAAVRRKNFKPTKYDSICSEHFTPDCFKRECNNKLLKENAVPTIFLCTEPHDKKEDLLEPQEQLPPPPLPPPVSQVDAAIGLLMPPLQTPVNLSVFCDHNYTVEDTMHQRKRIHQLEQQVEKLRKKLKTAQQRCRRQERQLEKLKEVVHFQKEKDDVSERGYVILPNDYFEIVEVPA [S51D],0.0561
2,MVQSCSAYGCKNRYDKDKPVSFHKFPLTRPSLCKEWEAAVRRKNFKPTKYASICSEHFTPDCFKRECNNKLLKENAVPTIFLCTEPHDKKEDLLEPQEQLPPPPLPPPVSQVDAAIGLLMPPLQTPVNLSVFCDHNYTVEDTMHQRKRIHQLEQQVEKLRKKLKTAQQRCRRQERQLEKLKEVVHFQKEKDDVSERGYVILPNDYFEIVEVPA [S51A],0.32
3,MVQSCSAYGCKNRYDKDKPVSFHKFPLTRPSLCKEWEAAVRRKNFKPTKYESICSEHFTPDCFKRECNNKLLKENAVPTIFLCTEPHDKKEDLLEPQEQLPPPPLPPPVSQVDAAIGLLMPPLQTPVNLSVFCDHNYTVEDTMHQRKRIHQLEQQVEKLRKKLKTAQQRCRRQERQLEKLKEVVHFQKEKDDVSERGYVILPNDYFEIVEVPA [S51E],0.185
4,MVQSCSAYGCKNRYDKDKPVSFHKFPLTRPSLCKEWEAAVRRKNFKPTKYFSICSEHFTPDCFKRECNNKLLKENAVPTIFLCTEPHDKKEDLLEPQEQLPPPPLPPPVSQVDAAIGLLMPPLQTPVNLSVFCDHNYTVEDTMHQRKRIHQLEQQVEKLRKKLKTAQQRCRRQERQLEKLKEVVHFQKEKDDVSERGYVILPNDYFEIVEVPA [S51F],0.102
5,MVQSCSAYGCKNRYDKDKPVSFHKFPLTRPSLCKEWEAAVRRKNFKPTKYCSICSEHFTPDCFKRECNNKLLKENAVPTIFLCTEPHDKKEDLLEPQEQLPPPPLPPPVSQVDAAIGLLMPPLQTPVNLSVFCDHNYTVEDTMHQRKRIHQLEQQVEKLRKKLKTAQQRCRRQERQLEKLKEVVHFQKEKDDVSERGYVILPNDYFEIVEVPA [S51C],0.128
6,MVQSCSAYGCKNRYDKDKPVSFHKFPLTRPSLCKEWEAAVRRKNFKPTVYSSICSEHFTPDCFKRECNNKLLKENAVPTIFLCTEPHDKKEDLLEPQEQLPPPPLPPPVSQVDAAIGLLMPPLQTPVNLSVFCDHNYTVEDTMHQRKRIHQLEQQVEKLRKKLKTAQQRCRRQERQLEKLKEVVHFQKEKDDVSERGYVILPNDYFEIVEVPA [K49V],0.257
7,MVQSCSAYGCKNRYDKDKPVSFHKFPLTRPSLCKEWEAAVRRKNFKPTTYSSICSEHFTPDCFKRECNNKLLKENAVPTIFLCTEPHDKKEDLLEPQEQLPPPPLPPPVSQVDAAIGLLMPPLQTPVNLSVFCDHNYTVEDTMHQRKRIHQLEQQVEKLRKKLKTAQQRCRRQERQLEKLKEVVHFQKEKDDVSERGYVILPNDYFEIVEVPA [K49T],0.138
8,MVQSCSAYGCKNRYDKDKPVSFHKFPLTRPSLCKEWEAAVRRKNFKPTWYSSICSEHFTPDCFKRECNNKLLKENAVPTIFLCTEPHDKKEDLLEPQEQLPPPPLPPPVSQVDAAIGLLMPPLQTPVNLSVFCDHNYTVEDTMHQRKRIHQLEQQVEKLRKKLKTAQQRCRRQERQLEKLKEVVHFQKEKDDVSERGYVILPNDYFEIVEVPA [K49W],0.1
9,MVQSCSAYGCKNRYDKDKPVSFHKFPLTRPSLCKEWEAAVRRKNFKPTYYSSICSEHFTPDCFKRECNNKLLKENAVPTIFLCTEPHDKKEDLLEPQEQLPPPPLPPPVSQVDAAIGLLMPPLQTPVNLSVFCDHNYTVEDTMHQRKRIHQLEQQVEKLRKKLKTAQQRCRRQERQLEKLKEVVHFQKEKDDVSERGYVILPNDYFEIVEVPA [K49Y],0.0951
10,MVQSCSAYGCKNRYDKDKPVSFHKFPLTRPSLCKEWEAAVRRKNFKPTSYSSICSEHFTPDCFKRECNNKLLKENAVPTIFLCTEPHDKKEDLLEPQEQLPPPPLPPPVSQVDAAIGLLMPPLQTPVNLSVFCDHNYTVEDTMHQRKRIHQLEQQVEKLRKKLKTAQQRCRRQERQLEKLKEVVHFQKEKDDVSERGYVILPNDYFEIVEVPA [K49S],0.261
11,MVQSCSAYGCKNRYDKDKPVSFHKFPLTRPSLCKEWEAAVRRKNFKPTKPSSICSEHFTPDCFKRECNNKLLKENAVPTIFLCTEPHDKKEDLLEPQEQLPPPPLPPPVSQVDAAIGLLMPPLQTPVNLSVFCDHNYTVEDTMHQRKRIHQLEQQVEKLRKKLKTAQQRCRRQERQLEKLKEVVHFQKEKDDVSERGYVILPNDYFEIVEVPA [Y50P],0.103
12,MVQSCSAYGCKNRYDKDKPVSFHKFPLTRPSLCKEWEAAVRRKNFKPTKGSSICSEHFTPDCFKRECNNKLLKENAVPTIFLCTEPHDKKEDLLEPQEQLPPPPLPPPVSQVDAAIGLLMPPLQTPVNLSVFCDHNYTVEDTMHQRKRIHQLEQQVEKLRKKLKTAQQRCRRQERQLEKLKEVVHFQKEKDDVSERGYVILPNDYFEIVEVPA [Y50G],0.1
13,MVQSCSAYGCKNRYDKDKPVSFHKFPLTRPSLCKEWEAAVRRKNFKPTKESSICSEHFTPDCFKRECNNKLLKENAVPTIFLCTEPHDKKEDLLEPQEQLPPPPLPPPVSQVDAAIGLLMPPLQTPVNLSVFCDHNYTVEDTMHQRKRIHQLEQQVEKLRKKLKTAQQRCRRQERQLEKLKEVVHFQKEKDDVSERGYVILPNDYFEIVEVPA [Y50E],0.108
14,MVQSCSAYGCKNRYDKDKPVSFHKFPLTRPSLCKEWEAAVRRKNFKPTKASSICSEHFTPDCFKRECNNKLLKENAVPTIFLCTEPHDKKEDLLEPQEQLPPPPLPPPVSQVDAAIGLLMPPLQTPVNLSVFCDHNYTVEDTMHQRKRIHQLEQQVEKLRKKLKTAQQRCRRQERQLEKLKEVVHFQKEKDDVSERGYVILPNDYFEIVEVPA [Y50A],0.294
15,MVQSCSAYGCKNRYDKDKPVSFHKFPLTRPSLCKEWEAAVRRKNFKPTKKSSICSEHFTPDCFKRECNNKLLKENAVPTIFLCTEPHDKKEDLLEPQEQLPPPPLPPPVSQVDAAIGLLMPPLQTPVNLSVFCDHNYTVEDTMHQRKRIHQLEQQVEKLRKKLKTAQQRCRRQERQLEKLKEVVHFQKEKDDVSERGYVILPNDYFEIVEVPA [Y50K],0.0751
16,MVQSCSAYGCKNRYDKDKPVSFHKFPLTRPSLCKEWEAAVRRKNFKPTKVSSICSEHFTPDCFKRECNNKLLKENAVPTIFLCTEPHDKKEDLLEPQEQLPPPPLPPPVSQVDAAIGLLMPPLQTPVNLSVFCDHNYTVEDTMHQRKRIHQLEQQVEKLRKKLKTAQQRCRRQERQLEKLKEVVHFQKEKDDVSERGYVILPNDYFEIVEVPA [Y50V],0.12
17,MVQSCSAYGCKNRYDKDKPVSFHKFPLTRPSLCKEWEAAVRRKNFKPTKMSSICSEHFTPDCFKRECNNKLLKENAVPTIFLCTEPHDKKEDLLEPQEQLPPPPLPPPVSQVDAAIGLLMPPLQTPVNLSVFCDHNYTVEDTMHQRKRIHQLEQQVEKLRKKLKTAQQRCRRQERQLEKLKEVVHFQKEKDDVSERGYVILPNDYFEIVEVPA [Y50M],0.091
18,MVQSCSAYGCKNRYDKDKPVSFHKFPLTRPSLCKEWEAAVRRKNFKPTKQSSICSEHFTPDCFKRECNNKLLKENAVPTIFLCTEPHDKKEDLLEPQEQLPPPPLPPPVSQVDAAIGLLMPPLQTPVNLSVFCDHNYTVEDTMHQRKRIHQLEQQVEKLRKKLKTAQQRCRRQERQLEKLKEVVHFQKEKDDVSERGYVILPNDYFEIVEVPA [Y50Q],0.0845
19,MVQSCSAYGCKNRYDKDKPVSFHKFPLTRPSLCKEWEAAVRRKNFKPTKLSSICSEHFTPDCFKRECNNKLLKENAVPTIFLCTEPHDKKEDLLEPQEQLPPPPLPPPVSQVDAAIGLLMPPLQTPVNLSVFCDHNYTVEDTMHQRKRIHQLEQQVEKLRKKLKTAQQRCRRQERQLEKLKEVVHFQKEKDDVSERGYVILPNDYFEIVEVPA [Y50L],0.135
20,MVQSCSAYGCKNRYDKDKPVSFHKFPLTRPSLCKEWEAAVRRKNFKPTKSSSICSEHFTPDCFKRECNNKLLKENAVPTIFLCTEPHDKKEDLLEPQEQLPPPPLPPPVSQVDAAIGLLMPPLQTPVNLSVFCDHNYTVEDTMHQRKRIHQLEQQVEKLRKKLKTAQQRCRRQERQLEKLKEVVHFQKEKDDVSERGYVILPNDYFEIVEVPA [Y50S],0.268
21,MVQSCSAYGCKNRYDKDKPVSFHKFPLTRPSLCKEWEAAVRRKNFKPTKHSSICSEHFTPDCFKRECNNKLLKENAVPTIFLCTEPHDKKEDLLEPQEQLPPPPLPPPVSQVDAAIGLLMPPLQTPVNLSVFCDHNYTVEDTMHQRKRIHQLEQQVEKLRKKLKTAQQRCRRQERQLEKLKEVVHFQKEKDDVSERGYVILPNDYFEIVEVPA [Y50H],0.759
22,MVQSCSAYGCKNRYDKDKPVSFHKFPLTRPSLCKEWEAAVRRKNFKPTKRSSICSEHFTPDCFKRECNNKLLKENAVPTIFLCTEPHDKKEDLLEPQEQLPPPPLPPPVSQVDAAIGLLMPPLQTPVNLSVFCDHNYTVEDTMHQRKRIHQLEQQVEKLRKKLKTAQQRCRRQERQLEKLKEVVHFQKEKDDVSERGYVILPNDYFEIVEVPA [Y50R],0.09
23,MVQSCSAYGCKNRYDKDKPVSFHKFPLTRPSLCKEWEAAVRRKNFKPTKNSSICSEHFTPDCFKRECNNKLLKENAVPTIFLCTEPHDKKEDLLEPQEQLPPPPLPPPVSQVDAAIGLLMPPLQTPVNLSVFCDHNYTVEDTMHQRKRIHQLEQQVEKLRKKLKTAQQRCRRQERQLEKLKEVVHFQKEKDDVSERGYVILPNDYFEIVEVPA [Y50N],0.389
24,MVQSCSAYGCKNRYDKDKPVSFHKFPLTRPSLCKEWEAAVRRKNFKPTKDSSICSEHFTPDCFKRECNNKLLKENAVPTIFLCTEPHDKKEDLLEPQEQLPPPPLPPPVSQVDAAIGLLMPPLQTPVNLSVFCDHNYTVEDTMHQRKRIHQLEQQVEKLRKKLKTAQQRCRRQERQLEKLKEVVHFQKEKDDVSERGYVILPNDYFEIVEVPA [Y50D],0.129
25,MVQSCSAYGCKNRYDKDKPVSFHKFPLTRPSLCKEWEAAVRRKNFKPTKCSSICSEHFTPDCFKRECNNKLLKENAVPTIFLCTEPHDKKEDLLEPQEQLPPPPLPPPVSQVDAAIGLLMPPLQTPVNLSVFCDHNYTVEDTMHQRKRIHQLEQQVEKLRKKLKTAQQRCRRQERQLEKLKEVVHFQKEKDDVSERGYVILPNDYFEIVEVPA [Y50C],0.275
26,MVQSCSAYGCKNRYDKDKPVSFHKFPLTRPSLCKEWEAAVRRKNFKPTKISSICSEHFTPDCFKRECNNKLLKENAVPTIFLCTEPHDKKEDLLEPQEQLPPPPLPPPVSQVDAAIGLLMPPLQTPVNLSVFCDHNYTVEDTMHQRKRIHQLEQQVEKLRKKLKTAQQRCRRQERQLEKLKEVVHFQKEKDDVSERGYVILPNDYFEIVEVPA [Y50I],0.112
27,MVQSCSAYGCKNRYDKDKPVSFHKFPLTRPSLCKEWEAAVRRKNFKPTKFSSICSEHFTPDCFKRECNNKLLKENAVPTIFLCTEPHDKKEDLLEPQEQLPPPPLPPPVSQVDAAIGLLMPPLQTPVNLSVFCDHNYTVEDTMHQRKRIHQLEQQVEKLRKKLKTAQQRCRRQERQLEKLKEVVHFQKEKDDVSERGYVILPNDYFEIVEVPA [Y50F],0.616
28,MVQSCSAYGCKNRYDKDKPVSFHKFPLTRPSLCKEWEAAVRRKNFKPTKTSSICSEHFTPDCFKRECNNKLLKENAVPTIFLCTEPHDKKEDLLEPQEQLPPPPLPPPVSQVDAAIGLLMPPLQTPVNLSVFCDHNYTVEDTMHQRKRIHQLEQQVEKLRKKLKTAQQRCRRQERQLEKLKEVVHFQKEKDDVSERGYVILPNDYFEIVEVPA [Y50T],0.13
